± gives the uncertainty stated by the source.

Among the data in the Human Domainome abundance scans (Beltran et al. 2025) are abundance fitness values, retold here.

B1: POU domain, class 3, transcription factor 2, residues 356 to 411; numbered along this chain, P20265 (parent)
chain: KKRTSIEVSVKGALESHFLKCPKPSAQEITSLADSLQLEKEVVRVWFCNRRQKEKR

The variants in the series derive from B1. Kind of series: abundance fitness (aPCA) (normalised: wild type 0, dead -1); higher = more abundant; growth selection in yeast, the domain comes from the species named. The following applies: Homo sapiens.
On to KKRTSIEVSVKGALESQFLKCPKPSAQEITSLADSLQLEKEVVRVWFCNRRQKEKR [H17Q], for which the abundance fitness was -0.286 ± 0.13.

Turning to KKRTSIEVSVKGALESTFLKCPKPSAQEITSLADSLQLEKEVVRVWFCNRRQKEKR [H17T], the abundance fitness is -0.1 ± 0.11.

Turning to KKRTSIEVSVKGALESCFLKCPKPSAQEITSLADSLQLEKEVVRVWFCNRRQKEKR [H17C], the abundance fitness is -0.283 ± 0.12.

With KKRTSIEVSVKGALESLFLKCPKPSAQEITSLADSLQLEKEVVRVWFCNRRQKEKR [H17L], the abundance fitness was -0.292 ± 0.079.

As for KKRTSIEVSVKGALESNFLKCPKPSAQEITSLADSLQLEKEVVRVWFCNRRQKEKR [H17N], the abundance fitness was -0.229 ± 0.35.

On to KKRTSIEVSVKGALESYFLKCPKPSAQEITSLADSLQLEKEVVRVWFCNRRQKEKR [H17Y], for which the abundance fitness stood at 0.156 ± 0.083.

For KKRTSIEVSVKGALESKFLKCPKPSAQEITSLADSLQLEKEVVRVWFCNRRQKEKR [H17K], the abundance fitness was -0.364 ± 0.13.

On to KKRTSIEVSVKGALESRFLKCPKPSAQEITSLADSLQLEKEVVRVWFCNRRQKEKR [H17R], for which the abundance fitness was -0.556 ± 0.085.

For the variant KKRTSIEVSVKGALESIFLKCPKPSAQEITSLADSLQLEKEVVRVWFCNRRQKEKR [H17I], the abundance fitness was -0.289 ± 0.16.

As to KKRTSIEVSVKGALESMFLKCPKPSAQEITSLADSLQLEKEVVRVWFCNRRQKEKR [H17M], the abundance fitness is -0.047 ± 0.11.

Consider KKRTSIEVSVKGALESAFLKCPKPSAQEITSLADSLQLEKEVVRVWFCNRRQKEKR [H17A], for which the abundance fitness was 0.127 ± 0.1.

For the variant KKRTSIEVSVKGALESPFLKCPKPSAQEITSLADSLQLEKEVVRVWFCNRRQKEKR [H17P], the abundance fitness is -1.05 ± 0.25.

For KKRTSIEVSVKGALESVFLKCPKPSAQEITSLADSLQLEKEVVRVWFCNRRQKEKR [H17V], the abundance fitness was -0.287 ± 0.082.

Turning to KKRTSIEVSVKGALESDFLKCPKPSAQEITSLADSLQLEKEVVRVWFCNRRQKEKR [H17D], the abundance fitness is -0.833 ± 0.22.

In the case of KKRTSIEVSVKGALESWFLKCPKPSAQEITSLADSLQLEKEVVRVWFCNRRQKEKR [H17W], the abundance fitness was -0.02 ± 0.098.

On to KKRTSIEVSVKGALESEFLKCPKPSAQEITSLADSLQLEKEVVRVWFCNRRQKEKR [H17E], for which the abundance fitness is -0.139 ± 0.1.

KKRTSIEVSVKGALESGFLKCPKPSAQEITSLADSLQLEKEVVRVWFCNRRQKEKR [H17G]: the abundance fitness was -0.712 ± 0.1.

KKRTSIEVSVKGALESSFLKCPKPSAQEITSLADSLQLEKEVVRVWFCNRRQKEKR [H17S]: the abundance fitness turned out to be 0.089 ± 0.095.

On to KKRTSIEVSVKGALEDHFLKCPKPSAQEITSLADSLQLEKEVVRVWFCNRRQKEKR [S16D], for which the abundance fitness is -0.193 ± 0.15.

For KKRTSIEVSVKGALEIHFLKCPKPSAQEITSLADSLQLEKEVVRVWFCNRRQKEKR [S16I], the abundance fitness was -0.368 ± 0.18.

Turning to KKRTSIEVSVKGALEEHFLKCPKPSAQEITSLADSLQLEKEVVRVWFCNRRQKEKR [S16E], the abundance fitness is -0.015 ± 0.1.

Turning to KKRTSIEVSVKGALEWHFLKCPKPSAQEITSLADSLQLEKEVVRVWFCNRRQKEKR [S16W], the abundance fitness is -0.399 ± 0.11.

Regarding KKRTSIEVSVKGALEKHFLKCPKPSAQEITSLADSLQLEKEVVRVWFCNRRQKEKR [S16K], the abundance fitness worked out at 0.12 ± 0.13.

Regarding KKRTSIEVSVKGALERHFLKCPKPSAQEITSLADSLQLEKEVVRVWFCNRRQKEKR [S16R], the abundance fitness is -0.055 ± 0.072.

As to KKRTSIEVSVKGALETHFLKCPKPSAQEITSLADSLQLEKEVVRVWFCNRRQKEKR [S16T], the abundance fitness was -0.034 ± 0.11.

In the case of KKRTSIEVSVKGALENHFLKCPKPSAQEITSLADSLQLEKEVVRVWFCNRRQKEKR [S16N], the abundance fitness is -0.297 ± 0.15.

With KKRTSIEVSVKGALEHHFLKCPKPSAQEITSLADSLQLEKEVVRVWFCNRRQKEKR [S16H], the abundance fitness was -0.21 ± 0.16.

Regarding KKRTSIEVSVKGALECHFLKCPKPSAQEITSLADSLQLEKEVVRVWFCNRRQKEKR [S16C], the abundance fitness is -0.226 ± 0.12.

On to KKRTSIEVSVKGALEAHFLKCPKPSAQEITSLADSLQLEKEVVRVWFCNRRQKEKR [S16A], for which the abundance fitness was determined as 0.097 ± 0.11.

Take KKRTSIEVSVKGALEYHFLKCPKPSAQEITSLADSLQLEKEVVRVWFCNRRQKEKR [S16Y]: the abundance fitness is -0.382 ± 0.16.

For the variant KKRTSIEVSVKGALEQHFLKCPKPSAQEITSLADSLQLEKEVVRVWFCNRRQKEKR [S16Q], the abundance fitness stood at 0.073 ± 0.15.

For the variant KKRTSIEVSVKGALEPHFLKCPKPSAQEITSLADSLQLEKEVVRVWFCNRRQKEKR [S16P], the abundance fitness is -0.539 ± 0.14.

Take KKRTSIEVSVKGALEMHFLKCPKPSAQEITSLADSLQLEKEVVRVWFCNRRQKEKR [S16M]: the abundance fitness was -0.06 ± 0.12.

Regarding KKRTSIEVSVKGALESHCLKCPKPSAQEITSLADSLQLEKEVVRVWFCNRRQKEKR [F18C], the abundance fitness was -0.914 ± 0.21.

KKRTSIEVSVKGALESHALKCPKPSAQEITSLADSLQLEKEVVRVWFCNRRQKEKR [F18A]: the abundance fitness was -0.902 ± 0.13.

Consider KKRTSIEVSVKGALESHDLKCPKPSAQEITSLADSLQLEKEVVRVWFCNRRQKEKR [F18D], for which the abundance fitness is -0.875 ± 0.17.

With KKRTSIEVSVKGALQSHFLKCPKPSAQEITSLADSLQLEKEVVRVWFCNRRQKEKR [E15Q], the abundance fitness is -0.527 ± 0.24.

For KKRTSIEVSVKGALISHFLKCPKPSAQEITSLADSLQLEKEVVRVWFCNRRQKEKR [E15I], the abundance fitness was -0.649 ± 0.14.

In the case of KKRTSIEVSVKGALPSHFLKCPKPSAQEITSLADSLQLEKEVVRVWFCNRRQKEKR [E15P], the abundance fitness was -1.04 ± 0.22.

With KKRTSIEVSVKGALNSHFLKCPKPSAQEITSLADSLQLEKEVVRVWFCNRRQKEKR [E15N], the abundance fitness was -0.693 ± 0.18.

For the variant KKRTSIEVSVKGALTSHFLKCPKPSAQEITSLADSLQLEKEVVRVWFCNRRQKEKR [E15T], the abundance fitness was -0.788 ± 0.17.

For the variant KKRTSIEVSVKGALYSHFLKCPKPSAQEITSLADSLQLEKEVVRVWFCNRRQKEKR [E15Y], the abundance fitness is -0.777 ± 0.21.

Take KKRTSIEVSVKGALKSHFLKCPKPSAQEITSLADSLQLEKEVVRVWFCNRRQKEKR [E15K]: the abundance fitness was -0.83 ± 0.21.

Regarding KKRTSIEVSVKGALWSHFLKCPKPSAQEITSLADSLQLEKEVVRVWFCNRRQKEKR [E15W], the abundance fitness is -0.822 ± 0.15.

Take KKRTSIEVSVKGALSSHFLKCPKPSAQEITSLADSLQLEKEVVRVWFCNRRQKEKR [E15S]: the abundance fitness is -0.959 ± 0.14.

Regarding KKRTSIEVSVKGALMSHFLKCPKPSAQEITSLADSLQLEKEVVRVWFCNRRQKEKR [E15M], the abundance fitness is -0.649 ± 0.15.

In the case of KKRTSIEVSVKGALRSHFLKCPKPSAQEITSLADSLQLEKEVVRVWFCNRRQKEKR [E15R], the abundance fitness is -1.02 ± 0.14.
